Article PMC4919432

Legend:
[1] = molecular target: Mec1·Ddc2 complex (yeast (budding yeast)) (UniProt P38111); test: negative stain electron microscopy, single-particle reconstruction; 70 nM Mec1·Ddc2 in 30 mM HEPES pH 7.4, 200 mM NaCl, 5% glycerol, 0.5 mM EDTA, 1 mM DTT; 2% uranyl acetate; C2 symmetry applied; 22.5 Å
[2] = molecular target: Mec1·Ddc2 complex (yeast (budding yeast)) (UniProt P38111); test: SEC; Mec1·Ddc2 on Superose 6 HR 10/30, 0.3 ml/min; 50 mM HEPES-KOH pH 7.4, 200 mM KCl, 10% glycerol, 0.1% Tween 20, 0.01% Nonidet P-40, 1 mM EDTA, 1 mM EGTA, 2 mM DTT; size against Bio-Rad gel filtration standards; peak fractions on SDS-PAGE
[3] = molecular target: Tel1 (yeast (budding yeast)) (UniProt P38110); test: SEC; Tel1 on Superose 6 Increase 5/150 GL, 0.1 ml/min; 50 mM HEPES-KOH pH 7.4, 200 mM KCl, 10% glycerol, 0.1% Tween 20, 0.02% C12E10, 1 mM EDTA, 3 mM DTT; size against Bio-Rad gel filtration standards
[4] = molecular target: Tel1 (yeast (budding yeast)) (UniProt P38110); test: negative stain electron microscopy, single-particle reconstruction; 20 nM Tel1 in 50 mM HEPES pH 7.4, 150 mM NaCl, 5% glycerol, 1 mM EDTA, 1 mM DTT; 2% uranyl acetate; C2 symmetry applied; 21 Å (FSC 0.5)
[5] = molecular target: Tel1 (yeast (budding yeast)) (UniProt P38110); test: cryo-EM structure; 20 nM Tel1 in 50 mM HEPES-KOH pH 7.4, 210 mM KCl, 1% glycerol, 0.02% Tween 20, 0.002% Nonidet P-40, 1 mM EDTA, 0.5 mM EGTA, 1 mM DTT, 0.5 mM MgCl2; holey carbon grids with a thin carbon layer; 19.2 Å

Row | percent of particles of the size of the dimer [1] [%] | stoichiometry N [1] | stoichiometry N [2] | stoichiometry N [3] | stoichiometry N [4] | stoichiometry N [5] | Substance
1 | 81 | 2 | 2 | – | – | – | Mec1·Ddc2 complex, P38111 1-2368; Q04377 1-747
2 | – | – | – | 2 | 2 | 2 | Tel1, P38110 1-2787
